Measured values published in the domain aggregation screens of Martell et al. (2025).

Assay: soluble fraction after stress (log2 fold change); higher = more stays soluble; pooled small domains, quantitative proteomics
Conditions: stress: pH 4
Method in brief: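 Custom libraries of small protein domains were pooled and exposed to pH 4. High-throughput quantitative proteomics then measured the log2 fold change in the amount of each domain still soluble, with higher values meaning more stayed soluble. This soluble-fraction fold change stands for aggregation propensity.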

| Sequence | soluble fraction (log2) |
| --- | --- |
| HMTVRLSVSADGKFFWNESQVSEEELFPRLQAEAAKEPQPDLHIRGDKNVRYEFVAQAMAAAQRAGVRKI | -0.423 |
| HMSAEVEVPDVVGRQVALAVQLIETKKLRVNVAETYDAKVPPGQVISQSPEAGMKVKEERVITIYVSR | 0.153 |
| HMNQIATSTQAIITTLSFLNTSSIFKLPVGDTASRPTGVSPGTLRFNSQEDSAEIYKADDGTGSAGWTEVA | -1.3 |
| HMGYSSKISELLTKYNMNASELAQKVGVPPTTIYSIIKRDSKKADIEVLIKIAKLFNVPVEYF | 0.186 |
| HMSRRIEIELTSSRPDGSWTWRAAGAREPKGVLDGTLLSQGSKPGDVVKAEAEFDIDGITIVSITQ | 0.0267 |
| HMPAQPEPYNNLARLYSAQGKLDQAASLLRAGLYTDPAYRALFDNLTRIYAEQAARSLSAALD | -0.879 |
| HMGGKWKLRILWHIHHGDTRFSTLKRGIPEISEKILAQQLRELEEHQLIKRRVVTVMPPHVVYEL | -0.518 |
| HMESRTQVYDFYKDLFREKRRPLRAEEMLSALKSQRGIVGVNQYQIIEQHGIVRLSGSGRSALYWDTDLGS | -0.746 |
| HMNISALKGKIGEVYLKIPAHNAGKGKVLISLKGTHHELYAITRSGEDISSGEFVKVIEIEDEILVVEK | -0.537 |
| HMYVEVPNFIGVPLVKVQSELASLGLVFNKSVVYQTSPYLKGNILDQRPLPGEVVPLNTEMSFTVSSGPA | -0.686 |
| HMDKLNKELVSRMMDDAAWKELSKDFPWTEQLLEKYMNYVDWKEISRNYNVVWTKSLLEKFKHRLDWHE | -1.1 |
| HMEEKVEVPNLSGKTYQQAKALLESYGLVAAKGGEEESEEPVGKVSRWSSAGKSVKKGTTITVWISGGI | 0.1 |
| HMTQEQKQQISDQLRAYVEQKGSGNKAAASMNGVSSATISKVLAGKWETISEDMWRSIAAQTGH | -0.156 |
| HMEALASESVKDKIRKIIDSEDPSRPMSDQRIKEMLKAANIDIARRTVTKYREAMNILSSTKRRQV | -0.168 |
| HMRRHLLEMNDAIGRLGRLISEDPADRDVAEVIWAALRGMVMGQMIMNEPIDWQRERRTLVEMAIGR | 0.119 |
| HMDRWTPLIVAVLIEGSHRFGELRSAIGGITPKVLTETLRSMERDGLVTRDQVPGVPPRVDYALTPLG | -0.434 |
| HMFLTPLEEARLVIEEIVIPKNIAVDLSPRPSALRKQQHELIAHYQLKSFSVGNERTKRLRILPKVI | -0.46 |
| HMADTSPEGVQKLIKAFEQFGVSKDDIEGFIQRRVDAITPANVVSLRKIFTSLRDGMSSAKDWFKGA | -0.325 |
| HMEAALTLRVDKAGSLRSLLSDEQYAKTSKIIVSGEINTLDIKTLQEMSGEKGSLQSIDLSQANIVAY | -0.351 |
| HMGQLIVTIPNFERRPAEQAIQKLEELGLVPEEKQIYHDDIPAGSVIYTDPSKDSQVNAGTKVYVYVSLG | -0.0832 |
| HMEVALEVPELRGLSMKQATNTLMASGFEVQKVGSGTIYAQFPLPGERLRTGYAVTIRGKTRDLG | 0.047 |
| HMNDLKVGELAKRGNVTAETVRHYTREGLLSPTRHPDNGYQLFSATDLERLHFIQRARKLGFSVAEIRDIL | -0.278 |
| HMYRYYSTLRPITPGAYPKPADNPAMLIHNFDNREYVGKIGREAWGYVEYNNPLTKEQIEAFDFVAE | -0.0236 |
| HMREGNELLGKEGVTVSELRPAGIALIDGRRTDVVTDGEFVAVDQAVEVVEVSGNRVVVRRS | 0.0769 |
| HMETFNMTQKEITRLRVINQAIDKVITIREAAELLGLSERQVIRLKGGVEKFGPAFIIHKNRGRKP | -0.265 |
| HMVGLTDLQRNVLVQIARGKSRQLISRTLKVTPAEISAALKVAQRRYRVASSTEVIVQALYDKTLSFHEIM | 0.105 |

| Sequence | soluble fraction (log2) |
| --- | --- |
| HMPSTVSVPDVAGSSLSEAKTTIKSSGLKVGTVHKVSSDTVESGYVIKTSPTAGSSKKEGSSIDIYVSKG | -0.026 |
| HMSPIPLPVERAIHKLGSDISLARRRRHISQASLAERMGASLSTVRRMEKGDVRVPIHFFARALHVFG | 0.158 |
| HMNVKQALLELMQRKPELTGSAIARAIGYSPAVISQYLKDGYPGDVVKLTTLIGDFIRRIDEKERS | -0.48 |
| HMLKDININVTGLDQISNAKLINNLNLLKMNNLFFLDEKKIKKILNSNNLIEKFFIFKKYPSTLDIKVYKT | 0.22 |
| HMERQAEAWTNRASALISLGRDEEALEAADRAIELDPRLSKAWIDRSTALSNLGRNDEANEAIQMAMFL | -0.962 |
| HMGSAIAHAIASLPDRYRELLLLKYDTGYSEKEIAQLLGMTEANVKKTIQRAKAKLQTLLDEMEA | -0.354 |
| HMDPLGALSDRERQVLALIGQGHGLQAIADQLGVSYKTAANTSSALKKKLGVDGINGLMKFALDSG | 0.023 |
| HMNVPYEMVTQNGEVFYKYKVQPGEGVFAVSRTFSVSVAEILRVNPEANKGLKNGQVLLIPVPKDMIA | -0.147 |
| HMGTKVGAPLPGTITEVKVKVGDTVKAGDAVIILEAMKMQNNIEAEVSGTVSSVLVKEGDTVMEGDALITI | -1.18 |
| HMREIKSNEILLEVENLKNSEFFNDINFNIKKGEIVGFSGLIGAGRTELALTLFGYYKAESGKVIQ | -0.291 |
| HMDTTLFGLFQNVILTQEDYEELSRTIVEDLDGLIDRLSAYMTSTGKTYKNHKATLLSWYLQDEKKFK | -1.49 |
| HMSHFRMLPSITEADAFLKSRSLPAGLEVREQVDAFLAQARQTLALAQEAPWLSKQEVLETLADEFVQTS | -1.25 |
| HMFKYRELLDWAKNRFDDLEVSIAPKALALLVESIGTDLRLLDSEIQKLSMYKPLEMISTNDVEDLVA | -1.15 |
| HMGSWDDFFNAIRLDNPNTLQALLQRGFDPNTVDQQGTPALMRALQEQSYRAAEVLADHPQI | -0.584 |
| HMLWTHIALPVRSLDDTMAFYDKYTTLENIHERQDPETNMRSVWLANPGDKTEQAARFVLVLI | -0.126 |
| HMQSSTAISFNQFQKSWLSNNIKSFQLGEDKMTVRGSLKNGTQYETIVPSERLFQFIGQHPKDGQVQEMY | ≥ 0.43 |
| HMVLSPAQVRRALMVSGLFTEARVARQLGVPMDLKQILRIILRNTPPQSAMARELESAIDEIESRNAMRD | -0.844 |
| HMKNPLIIGMTKDKIIELIGMPDNIKFLDSSLSKSEVWNYDKFGKKLYIKDEKLYQIENIEE | -0.491 |
| HMDFFTAAPEEDEIGKRIDVYIAEYKEELSRSRVQKLIENGLVTVNGKAVKSNYKLRKGDILEVEIPDPE | -0.00543 |
| HMKNYALHEPMMDRIAKVNALYDAGHTIKYMTARGAVSMVDYYDLTKSQLDSWGAKYHELSVGK | 0.179 |
| HMVADLSGVGDKDIIVDQFIYHEVLPKETIYSIVKSFNVTSEDLNKNNPFLRANGLRIGQVIRIPLKI | -0.224 |
| HMGIDSSVYVEARYELGHLYLKQKKYAAAYASFKEILDMYASTTPGVLPGAYNKLAEIGMKRIPKNKL | -0.182 |
| HMNKTEIISILEKIVLPTQIRNINIFGSEVIIDLNIDNPSLHAKKKLEKSIINSFDKNHKIIINFNVE | -0.514 |
| HMAAELHPYGADSYRGDNPPAGYEIKAKEESKKFHTPSSPWYGRTIAEIWFRTEEAAEAAGFINAVK | -0.272 |
| HMSVDVGMQLRKLREERKISMRELARLSGLSANALSMIERGLTSPSVSTLNKLAGALEVPITAFFRI | -0.00213 |
| HMSISSIDFENLKSDELSDAQITQIYRQAQEQGLSIDELSSLAIARGMSPTEVAKLRSRFNSIP | 0.00293 |

| Sequence | soluble fraction (log2) |
| --- | --- |
| HMSLNQRIKEARIKMGYTQEQLGNLIGVAKTTISGYEKNREPDAATIGLIIDALKVDANFLFQ | -1.2 |
| HMFNEFEDIPDIISAEGIDPAMREEVAANLKKYYKNPDAMLALAPLEREYYEKLVGILSEKIELKKEN | -0.361 |
| HMLKLYILTDGKNYVMDDPIHPGRVMYSTSPVNAKKFTFKQARALLNNKSKKLSWIRSFNMVDDSSGEKI | 0.417 |
| HMVEKRLFPQISDAGKRLDLFLAGALAISRTMVVKIIKDGGVLVNGKAAKASYRLAGDEELLVSYEEP | -0.243 |
| HMPELFLFNPDTASAATFQALGFSARQAGVLIHFREALGGRFGSVEQFSKSYVVDSATLERLRPYMVF | -0.029 |
| HMGGSLADAKRFLADLLADGPVPAKGVRADADGAGHTWPTIRRAQKALGIEATKTGMKGGWVWALPR | 0.00461 |
| HMKLTESQLHKFTNDAVLAHIRNLIEFKGAFTEDDIEPIIRDRAAVYGIDLEDEDYKKVKTDVEYHFK | -1.53 |
| HMSTSAAELLRTARQQAGMSQSAVAELAKTSQSAIAMYEAGNREPSLPVLQRLLAATGHQLSLSVLP | 0.00437 |
| HMENFDNIFDQRLMPSLFIIRNINQAIENNNNNKFLLNSTISMKDKHWIEIHPHHLKLIISGYQT | -0.54 |
| HMENYGEAITYIHGMIEDSSEKMLAASKALKVNANTLIKFMKDPYSVAAHIRDRIVENLANLEKAVKAI | -0.59 |
| HMPSRPIQVASFSKEDNAKRAAEALAKIGVTATPQKSEKAGKAVWGVVVTGDDAMLQKIKDAGFADAYFL | 0.22 |
| HMSTDSTQLLGFNKTGEELPIYKEANEENKFAEIPQNVYVKNFGQNGEFTKIKYLDQEGYVKTAGLK | 0.199 |
| HMGQYLDAATVAAVYHAYHARNWTQATLAKELKVARPTLSNVLNGREAPSVELAARIRAFLGSPEP | ≥ 0.43 |
| HMGDVSGFLRGVLADGPVPAKTVFSEASGAGYSRDQIQRAARKIGVERRKTGMAGGWVWELEP | -0.038 |
| HMSREMIKSELESISGLGKSGIEKLYTHFINIENIKSASLENIRNIPGISYKVADNIYKHFH | 0.385 |
| HMQKPELLAPAGSLEKAKTAFKYGADAVYMGTSNLSLRSRVTVDDDELIKTIEYAHSINKKVYAALNIYAR | 0.134 |
| HMNSVYTPDPKELAKAIKIVTAAREAEQKGQGVIAVDGRMVDAPVVSQALRILELARLAGMEVSE | 0.22 |
| HMTEPLTKREKEVLLLLPRGLTAKAMASELFLTEATIKSHLAAIFRKFKVVNRTQAIAIAVESKILT | -1.1 |
| HMNKNIKIPNISNLSREDAESVLKESGISVSTEIKEVESDTIEKGKVVKTEPSIGSTVKQGRTITIYISSG | 0.092 |
| HMSKNDLAGDEADVYKLLSVETGKPISDLVNRLPFGKSKTREILNTLAEKGFVYISGSGRGTKYHR | -0.403 |
| HMTDAELDLLTPREQEVLQLIARGYLYKEIARRLGISVKTVEAHASSVLRKLQLSTRHELSHWAAQRH | -0.192 |
| HMPSIGKNILYYRKKRNMTIDELSKKSGVSKSMLSQVEQEKTNPTVVTVWKIARSLDVSINQLLQT | 0.136 |
| HMSYQNKLNYLINAFGGADNFQKLLGVGPSAISNYKSRKHLPLNQAKRLSKIAPQFGFSLDPHSLQIST | 0.0613 |
| HMMTLEESYKLLQVSHNASDIEITKAFKKLALLYHPDKNPSNIDWANKAMASINVAYNTIITHRFKEK | -0.2 |
